Here are results for seven molecules from article PMC4655838, “Versatility in phospho-dependent molecular recognition of the XRCC1 and XRCC4 DNA-damage scaffolds by aprataxin-family FHA domains” (DNA Repair, 2015).

Experiment [1] deals with aprataxin FHA domain (residues 1-105). The experiment is described as follows: ITC; peptide injected (30 x 10 ul) into FHA domain in the cell; 22 °C; 50 mM HEPES pH 7.5, 150 mM NaCl, 5 mM β-mercaptoethanol; XRCC1 peptides 1 mM into 100 μM protein, XRCC4 peptides 300 μM into 30 μM protein; single-site binding model. Background: ITC needs no label: the signal is the heat of the interaction.

Experiment [2] concerns the target aprataxin FHA domain K38A (residues 1-105). Described as above.
The target of experiment [3] is aprataxin FHA domain (residues 1-105). The experiment is described as follows: NMR titration; unlabelled XRCC1 peptide added to 92 μM 15N-labelled aprataxin FHA domain up to 1:4; 22 °C; 20 mM Na acetate pH 5.8, 50 mM NaCl, 2 mM DTT; SOFAST-HMQC; apparent Kd, mean of the fits for D37, V45, Q46, V61 and V63.

Square brackets hold non-standard residues; d marks the D form. Ends that are not written are not given here. pT = C[C@@H](OP(=O)(O)O)[C@H](N)C(=O)O; pS = N[C@@H](COP(=O)(O)O)C(=O)O

B1: XRCC4 229-237 peptide phosphorylated on Ser232 and Thr233 (peptide)
peptide: YDESTDEES
HELM: PEPTIDE1{Y.D.E.[O=C([C@H](COP(=O)(O)O)N[*:1])[*:2]].[C[C@@H](OP(=O)(O)O)[C@H](N[*:1])C(=O)[*:2]].D.E.E.S.[am]}$$$$V2.0; N-terminus assumed
SMILES: C[C@@H](OP(=O)(O)O)[C@H](NC(=O)[C@H](COP(=O)(O)O)NC(=O)[C@H](CCC(=O)O)NC(=O)[C@H](CC(=O)O)NC(=O)[C@@H](N)Cc1ccc(O)cc1)C(=O)N[C@@H](CC(=O)O)C(=O)N[C@@H](CCC(=O)O)C(=O)N[C@@H](CCC(=O)O)C(=O)N[C@@H](CO)C(N)=O
The molecule B1 yielded a fold increase in binding over the mono-phosphorylated peptide in experiment [1] of 8 fold. The fold decrease in binding relative to the wild-type in experiment [2] was 7.6 fold.

B2: XRCC1 515-529 peptide phosphorylated on Ser518 and Thr519 (peptide)
peptide: YAGSTDENTDSEEHQ
HELM: PEPTIDE1{Y.A.G.[O=C([C@H](COP(=O)(O)O)N[*:1])[*:2]].[C[C@@H](OP(=O)(O)O)[C@H](N[*:1])C(=O)[*:2]].D.E.N.T.D.S.E.E.H.Q.[am]}$$$$V2.0; N-terminus assumed
SMILES: C[C@H](NC(=O)[C@@H](N)Cc1ccc(O)cc1)C(=O)NCC(=O)N[C@@H](COP(=O)(O)O)C(=O)N[C@H](C(=O)N[C@@H](CC(=O)O)C(=O)N[C@@H](CCC(=O)O)C(=O)N[C@@H](CC(N)=O)C(=O)N[C@H](C(=O)N[C@@H](CC(=O)O)C(=O)N[C@@H](CO)C(=O)N[C@@H](CCC(=O)O)C(=O)N[C@@H](CCC(=O)O)C(=O)N[C@@H](Cc1c[nH]cn1)C(=O)N[C@@H](CCC(N)=O)C(N)=O)[C@@H](C)O)[C@@H](C)OP(=O)(O)O
Regarding B2, the Kd in experiment [3] turned out to be 2 µM. In experiment [1], this molecule gave a fold increase in binding over the mono-phosphorylated peptide of 11 fold. This molecule displayed a fold decrease in binding relative to the wild-type in experiment [2] of 8.5 fold.

B3: XRCC1 515-529 peptide phosphorylated on Thr519 (peptide)
peptide: YAGSTDENTDSEEHQ
HELM: PEPTIDE1{Y.A.G.S.[C[C@@H](OP(=O)(O)O)[C@H](N[*:1])C(=O)[*:2]].D.E.N.T.D.S.E.E.H.Q.[am]}$$$$V2.0; N-terminus assumed
SMILES: C[C@H](NC(=O)[C@@H](N)Cc1ccc(O)cc1)C(=O)NCC(=O)N[C@@H](CO)C(=O)N[C@H](C(=O)N[C@@H](CC(=O)O)C(=O)N[C@@H](CCC(=O)O)C(=O)N[C@@H](CC(N)=O)C(=O)N[C@H](C(=O)N[C@@H](CC(=O)O)C(=O)N[C@@H](CO)C(=O)N[C@@H](CCC(=O)O)C(=O)N[C@@H](CCC(=O)O)C(=O)N[C@@H](Cc1c[nH]cn1)C(=O)N[C@@H](CCC(N)=O)C(N)=O)[C@@H](C)O)[C@@H](C)OP(=O)(O)O
As to B3, the Kd in experiment [3] came out at 7 µM. The molecule further registered a fold decrease in binding relative to the wild-type in experiment [2] of 2.7 fold.

B4: XRCC4 229-237 peptide phosphorylated on Thr233 (peptide)
peptide: YDESTDEES
HELM: PEPTIDE1{Y.D.E.S.[C[C@@H](OP(=O)(O)O)[C@H](N[*:1])C(=O)[*:2]].D.E.E.S.[am]}$$$$V2.0; N-terminus assumed
SMILES: C[C@@H](OP(=O)(O)O)[C@H](NC(=O)[C@H](CO)NC(=O)[C@H](CCC(=O)O)NC(=O)[C@H](CC(=O)O)NC(=O)[C@@H](N)Cc1ccc(O)cc1)C(=O)N[C@@H](CC(=O)O)C(=O)N[C@@H](CCC(=O)O)C(=O)N[C@@H](CCC(=O)O)C(=O)N[C@@H](CO)C(N)=O
B4 registered a fold tighter binding than the XRCC1 pThr519 peptide in experiment [1] of 8 fold. In experiment [2], this molecule showed a fold decrease in binding relative to the wild-type of 3.2 fold.

B5: XRCC1 515-529 peptide phosphorylated on Ser518, Thr519 and Thr523 (peptide)
peptide: YAG[pS][pT]DEN[pT]DSEEHQ-NH2
modifications: N-terminus assumed
SMILES: C[C@H](NC(=O)[C@@H](N)Cc1ccc(O)cc1)C(=O)NCC(=O)N[C@@H](COP(=O)(O)O)C(=O)N[C@H](C(=O)N[C@@H](CC(=O)O)C(=O)N[C@@H](CCC(=O)O)C(=O)N[C@@H](CC(N)=O)C(=O)N[C@H](C(=O)N[C@@H](CC(=O)O)C(=O)N[C@@H](CO)C(=O)N[C@@H](CCC(=O)O)C(=O)N[C@@H](CCC(=O)O)C(=O)N[C@@H](Cc1c[nH]cn1)C(=O)N[C@@H](CCC(N)=O)C(N)=O)[C@@H](C)OP(=O)(O)O)[C@@H](C)OP(=O)(O)O
Turning to B5, the Kd in experiment [3] is < 1 µM. In experiment [1], this molecule had a fold increase in binding over the di-phosphorylated peptide of 3 fold and a fold preference over the mono-phosphorylated (pT233) XRCC4 peptide of 5 fold. The molecule further returned a fold decrease in binding relative to the wild-type in experiment [2] of 8.8 fold.

B6: XRCC1 515-529 peptide phosphorylated solely on Thr523 (peptide)
peptide: YAGSTDENTDSEEHQ
HELM: PEPTIDE1{Y.A.G.S.T.D.E.N.[C[C@@H](OP(=O)(O)O)[C@H](N[*:1])C(=O)[*:2]].D.S.E.E.H.Q.[am]}$$$$V2.0; N-terminus assumed
SMILES: C[C@H](NC(=O)[C@@H](N)Cc1ccc(O)cc1)C(=O)NCC(=O)N[C@@H](CO)C(=O)N[C@H](C(=O)N[C@@H](CC(=O)O)C(=O)N[C@@H](CCC(=O)O)C(=O)N[C@@H](CC(N)=O)C(=O)N[C@H](C(=O)N[C@@H](CC(=O)O)C(=O)N[C@@H](CO)C(=O)N[C@@H](CCC(=O)O)C(=O)N[C@@H](CCC(=O)O)C(=O)N[C@@H](Cc1c[nH]cn1)C(=O)N[C@@H](CCC(N)=O)C(N)=O)[C@@H](C)OP(=O)(O)O)[C@@H](C)O
For B6, in experiment [3], the Kd was 7 µM.

B7: XRCC4 229-237 peptide phosphorylated on Ser232, Thr233 and Ser237 (peptide)
peptide: YDE[pS][pT]DEE[pS]-NH2
modifications: N-terminus assumed
SMILES: C[C@@H](OP(=O)(O)O)[C@H](NC(=O)[C@H](COP(=O)(O)O)NC(=O)[C@H](CCC(=O)O)NC(=O)[C@H](CC(=O)O)NC(=O)[C@@H](N)Cc1ccc(O)cc1)C(=O)N[C@@H](CC(=O)O)C(=O)N[C@@H](CCC(=O)O)C(=O)N[C@@H](CCC(=O)O)C(=O)N[C@@H](COP(=O)(O)O)C(N)=O
With B7, the fold decrease in binding relative to the wild-type in experiment [2] came to 9.3 fold.
